Assay results published in patent US20190330638A1 (MAYO FOUNDATION FOR MEDICAL EDUCATION AND RESEARCH, published 2019).

Target: T1, Ubiquitin-H4 fusion construct (UniProt P0CG48 1-76; P62805 1-103, limits assumed)
T1 construct: Linear fusion used as control bait for pull-down/mass spectrometry; a single ubiquitin unit is meant; also called Ub-H4; Ubquitin-H4
Assay: pull-down with fusion construct, mass spectrometry
Protocol: A search for potential histone H4 ufmylation readers was performed. […] Next, an immunopreciptation assay was performed with STK38 antibody.

B1: serine/threonine kinase 38 (STK38) (enzyme)
chain: not shown
notes: Endogenous protein from cell lysates (pull-down/mass spectrometry, immunoprecipitation with STK38 antibody); also called NDR1
Question: Does B1 bind?
Answer: Result: no binding
